# Source: US20200223906A1
# Assays:
# [1] = target: RSV F protein of subtype A (strain A2) on recombinant mKate-RSV (respiratory syncytial virus subtype A (strain A2)) (UniProt P03420); test: cell-based or functional assay
# [2] = target: human metapneumovirus (HMPV) F protein on GFP-expressing hMPV recombinant virus (NL/1/00, A1 sublineage) (human metapneumovirus); test: cell-based or functional assay
substance,measurement,setting,value
MPE8 (antibody),RSV-A2 IC50,[1],0.04 µg/mL
same,HMPV-A1 IC50,[2],0.07 µg/mL
